# Paper PMC5584140 (The Journal of Cell Biology, 2017)
# Target: T1, µ1 MHD carrying a C-terminal Avitag, WT (UniProt Q9BXS5 158-423)
# T1 sequence (looked up): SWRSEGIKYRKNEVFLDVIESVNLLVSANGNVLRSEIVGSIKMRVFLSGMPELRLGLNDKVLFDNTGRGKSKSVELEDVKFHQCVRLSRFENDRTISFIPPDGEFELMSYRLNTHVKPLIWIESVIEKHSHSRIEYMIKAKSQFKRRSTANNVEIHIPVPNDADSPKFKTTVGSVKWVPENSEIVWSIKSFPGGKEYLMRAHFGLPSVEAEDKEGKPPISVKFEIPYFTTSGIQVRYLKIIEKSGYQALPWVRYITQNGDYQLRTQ
# Test: SPR
binder,measurement,value
CKVTRRPKASDYQRL [TGN38 peptide carrying a canonical YXXΦ signal],Kd,~20 µM
